From the RNAGym collection of RNA variant scans (doi:10.1073/pnas.2313332121) come the findings set out here.

The chains are these.
B1: TPR t1 (parent)
chain: GACCAAUCUGCCCUCAGAGCUCGAGAACAUCUUCGGAUGCAGAGGAGGCAGGCUUCGGUGGCGCGAUAGCGCCAACGUCCUCAACCUCCAAUGCAUCCCACCACAUGAUGAUGCCUGAAGAGCCUUGGUUUUUUG

The series covers variants of B1. Kind of series: polymerase ribozyme fitness, log enrichment relative to wild type (log ratio); higher = more active; in vitro selection for triplet polymerase activity. An outline of the steps: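 Fitness is a logarithmic measure of how a genotype enriched relative to the wild type, with replicate averages weighted by inverse variance. The logarithm uses base 2, and enrichment came from Illumina sequencing of input and output libraries. Those libraries were PCR-built, transcribed mutants of each subunit of a heterodimeric triplet polymerase ribozyme, passed through one triplicate in vitro selection round that included frozen incubation at −7 °C, gel excision of extended constructs and streptavidin-bead capture. Genotypes were kept only if they had ≥10 input reads and ≥1 read per output.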
For the variant A95G C114G, the “polymerase ribozyme fitness (log ratio)” value is -3.45.

In the case of C102G U112A C123U G127A, the “polymerase ribozyme fitness (log ratio)” value was -5.25.

Take C97U G110C: the “polymerase ribozyme fitness (log ratio)” value was -3.29.

For the variant A91G C97A A118U, the “polymerase ribozyme fitness (log ratio)” value is -5.26.

Turning to C98U C123U, the “polymerase ribozyme fitness (log ratio)” value is -1.28.

With C102A G117C, the “polymerase ribozyme fitness (log ratio)” value was -6.66.

On to A100G, for which the “polymerase ribozyme fitness (log ratio)” value was -2.32.

A100C: the “polymerase ribozyme fitness (log ratio)” value was -0.919.

On to A100U, for which the “polymerase ribozyme fitness (log ratio)” value was -0.595.

For the variant A90G C101A C123A, the “polymerase ribozyme fitness (log ratio)” value was -0.711.

Consider A91C U96A, for which the “polymerase ribozyme fitness (log ratio)” value is -2.09.

As to C104A C123U, the “polymerase ribozyme fitness (log ratio)” value is -0.0302.

Consider C94U G110U, for which the “polymerase ribozyme fitness (log ratio)” value is -2.05.

Regarding C94A G117U U129A, the “polymerase ribozyme fitness (log ratio)” value is -4.44.

Consider C104U U112C, for which the “polymerase ribozyme fitness (log ratio)” value stood at 0.772.

Consider C101G A121U, for which the “polymerase ribozyme fitness (log ratio)” value was -0.28.

With U106C A118U G120A, the “polymerase ribozyme fitness (log ratio)” value turned out to be 0.234.

Regarding C94U U96A, the “polymerase ribozyme fitness (log ratio)” value is -1.02.

As to A100C U112G U116A, the “polymerase ribozyme fitness (log ratio)” value is -4.36.

Take U96A G117C: the “polymerase ribozyme fitness (log ratio)” value was -5.1.

For C104A C115A, the “polymerase ribozyme fitness (log ratio)” value was -0.858.

C97G A118U U126A: the “polymerase ribozyme fitness (log ratio)” value was -5.69.

With C94G U106A, the “polymerase ribozyme fitness (log ratio)” value was -1.14.

For U96G G117U, the “polymerase ribozyme fitness (log ratio)” value is -2.13.

Consider U96G C114U, for which the “polymerase ribozyme fitness (log ratio)” value is -2.28.

Consider C99U G110U A121G, for which the “polymerase ribozyme fitness (log ratio)” value was -5.37.

As to C101A U116A, the “polymerase ribozyme fitness (log ratio)” value was -3.39.

As for C94G C123A C124A, the “polymerase ribozyme fitness (log ratio)” value was determined as 1.47.

With C97U A103U G113C C115A U116A, the “polymerase ribozyme fitness (log ratio)” value is -6.04.

As to C98U U129G, the “polymerase ribozyme fitness (log ratio)” value was -2.41.

For A91U U112A G117C C123U U134A, the “polymerase ribozyme fitness (log ratio)” value is -2.54.

With A103G G117A, the “polymerase ribozyme fitness (log ratio)” value is -4.42.

G107A C124A: the “polymerase ribozyme fitness (log ratio)” value was -2.63.

In the case of A90U A105G, the “polymerase ribozyme fitness (log ratio)” value was -3.78.

For C104U C124U, the “polymerase ribozyme fitness (log ratio)” value turned out to be 0.788.

For the variant C94A C114A G122A, the “polymerase ribozyme fitness (log ratio)” value is -3.

Consider A91C A118G, for which the “polymerase ribozyme fitness (log ratio)” value was -2.33.

As for C102G U112A G127U, the “polymerase ribozyme fitness (log ratio)” value was -4.33.

Regarding G93C G120C, the “polymerase ribozyme fitness (log ratio)” value is -1.19.

Take G93C G120U: the “polymerase ribozyme fitness (log ratio)” value is -1.78.

Take G93U C124G: the “polymerase ribozyme fitness (log ratio)” value was 0.697.

On to G93C U106C U112C, for which the “polymerase ribozyme fitness (log ratio)” value stood at 0.785.

In the case of U106A G120A, the “polymerase ribozyme fitness (log ratio)” value was determined as 0.348.

As to U92C U132C, the “polymerase ribozyme fitness (log ratio)” value was -1.85.

As to A95U C115A, the “polymerase ribozyme fitness (log ratio)” value is -1.22.

For C101A G110A C123A, the “polymerase ribozyme fitness (log ratio)” value is -3.51.

For A95G A103C G120U G135U, the “polymerase ribozyme fitness (log ratio)” value was -6.78.

With A105U G113U, the “polymerase ribozyme fitness (log ratio)” value was -5.9.

C98A C124G G128A U133G: the “polymerase ribozyme fitness (log ratio)” value was -6.31.

Take C98A C114U C123G U131C: the “polymerase ribozyme fitness (log ratio)” value is -5.24.

With A103G A118G, the “polymerase ribozyme fitness (log ratio)” value was -4.56.

In the case of C99U C102G, the “polymerase ribozyme fitness (log ratio)” value was -6.32.

For G93A G122A U125G, the “polymerase ribozyme fitness (log ratio)” value was -3.18.

Turning to A90G U125G, the “polymerase ribozyme fitness (log ratio)” value is -0.567.

Take A95G A111C G113A A119C G120C: the “polymerase ribozyme fitness (log ratio)” value was -3.77.

As for C98A, the “polymerase ribozyme fitness (log ratio)” value was -5.14.

With C98U, the “polymerase ribozyme fitness (log ratio)” value was -1.2.

Consider C98G, for which the “polymerase ribozyme fitness (log ratio)” value was -5.78.

Consider U106G U112G, for which the “polymerase ribozyme fitness (log ratio)” value is -1.25.

Take U106A U109G A111U: the “polymerase ribozyme fitness (log ratio)” value was -4.71.

For A91U U109A, the “polymerase ribozyme fitness (log ratio)” value is -8.07.

Turning to C99U C123G, the “polymerase ribozyme fitness (log ratio)” value was -1.13.

For A103U A119U, the “polymerase ribozyme fitness (log ratio)” value is -5.64.

Consider C99U U132A, for which the “polymerase ribozyme fitness (log ratio)” value is -2.96.

Turning to C97G G120U U126C, the “polymerase ribozyme fitness (log ratio)” value is -4.9.

As for A95U C114A, the “polymerase ribozyme fitness (log ratio)” value is -1.43.

Regarding C102U G110U, the “polymerase ribozyme fitness (log ratio)” value was -4.26.

On to C97A A105G, for which the “polymerase ribozyme fitness (log ratio)” value was -5.98.

With A105U U109C, the “polymerase ribozyme fitness (log ratio)” value was -5.35.

Take A90U U116C: the “polymerase ribozyme fitness (log ratio)” value is -1.26.

For C98U C114A, the “polymerase ribozyme fitness (log ratio)” value is -3.47.

A100C U130G: the “polymerase ribozyme fitness (log ratio)” value is -0.881.

In the case of G93C C114G, the “polymerase ribozyme fitness (log ratio)” value was -4.17.

As to U109A A119G, the “polymerase ribozyme fitness (log ratio)” value was -5.27.

For the variant A100C G120U U125C, the “polymerase ribozyme fitness (log ratio)” value was -0.56.

Take A90C C123U: the “polymerase ribozyme fitness (log ratio)” value turned out to be 0.206.

In the case of C104A C114U G127A U131A, the “polymerase ribozyme fitness (log ratio)” value was -6.47.

For the variant A105C, the “polymerase ribozyme fitness (log ratio)” value is -2.22.

For A105G, the “polymerase ribozyme fitness (log ratio)” value is -1.71.

With A105U, the “polymerase ribozyme fitness (log ratio)” value is -1.69.

Turning to G93A G113U C114G, the “polymerase ribozyme fitness (log ratio)” value is -2.9.

For G93U C115A, the “polymerase ribozyme fitness (log ratio)” value was -2.49.

Regarding G93U C115U, the “polymerase ribozyme fitness (log ratio)” value is -1.63.
